The results in this text go back to paper PMC5330652 (Journal of the American Chemical Society, 2017).

The series concerns the molecule itself. As to the kind of experiment: negative-stain TEM + dynamic light scattering.

B1: cowpea chlorotic mottle virus (CCMV) capsid protein (natural protein)
chain: MSTVGTGKLTRAQRRAAARKNKRNTRVVQPVIVEPIASGQGKAIKAWTGYSVSKWTASCAAAEAKVTSAITISLPNELSSERNKQLKVGRVLLWLGLLPSVSGTVKSCVTETQTTAAASFQVALAVADNSKDVVAAMYPEAFKGITLEQLTADLTIYLYSSAALTEGDVIVHLEVEHVRPTFDDSFTPVY
B1: the “stoichiometry N” value is 60.

As a reminder, the stoichiometry N is a count of units in the complex or per binding partner.
